Measurements as given in patent US9061070B2, “Treating stroke and other diseases without inhibiting N-type calcium channels” (NoNO, Inc., priority 2007, dated 2015).

Biological target: N-type calcium channels (Mus musculus, UniProt O55017)
Assay: Whole-cell patch clamp recordings of calcium currents in dorsal root ganglion neurons
Assay type: cell-based, Swiss mice
Conditions: 100 μM; FIG. 5A

Sequence of N-type calcium channels (O55017 whole entry): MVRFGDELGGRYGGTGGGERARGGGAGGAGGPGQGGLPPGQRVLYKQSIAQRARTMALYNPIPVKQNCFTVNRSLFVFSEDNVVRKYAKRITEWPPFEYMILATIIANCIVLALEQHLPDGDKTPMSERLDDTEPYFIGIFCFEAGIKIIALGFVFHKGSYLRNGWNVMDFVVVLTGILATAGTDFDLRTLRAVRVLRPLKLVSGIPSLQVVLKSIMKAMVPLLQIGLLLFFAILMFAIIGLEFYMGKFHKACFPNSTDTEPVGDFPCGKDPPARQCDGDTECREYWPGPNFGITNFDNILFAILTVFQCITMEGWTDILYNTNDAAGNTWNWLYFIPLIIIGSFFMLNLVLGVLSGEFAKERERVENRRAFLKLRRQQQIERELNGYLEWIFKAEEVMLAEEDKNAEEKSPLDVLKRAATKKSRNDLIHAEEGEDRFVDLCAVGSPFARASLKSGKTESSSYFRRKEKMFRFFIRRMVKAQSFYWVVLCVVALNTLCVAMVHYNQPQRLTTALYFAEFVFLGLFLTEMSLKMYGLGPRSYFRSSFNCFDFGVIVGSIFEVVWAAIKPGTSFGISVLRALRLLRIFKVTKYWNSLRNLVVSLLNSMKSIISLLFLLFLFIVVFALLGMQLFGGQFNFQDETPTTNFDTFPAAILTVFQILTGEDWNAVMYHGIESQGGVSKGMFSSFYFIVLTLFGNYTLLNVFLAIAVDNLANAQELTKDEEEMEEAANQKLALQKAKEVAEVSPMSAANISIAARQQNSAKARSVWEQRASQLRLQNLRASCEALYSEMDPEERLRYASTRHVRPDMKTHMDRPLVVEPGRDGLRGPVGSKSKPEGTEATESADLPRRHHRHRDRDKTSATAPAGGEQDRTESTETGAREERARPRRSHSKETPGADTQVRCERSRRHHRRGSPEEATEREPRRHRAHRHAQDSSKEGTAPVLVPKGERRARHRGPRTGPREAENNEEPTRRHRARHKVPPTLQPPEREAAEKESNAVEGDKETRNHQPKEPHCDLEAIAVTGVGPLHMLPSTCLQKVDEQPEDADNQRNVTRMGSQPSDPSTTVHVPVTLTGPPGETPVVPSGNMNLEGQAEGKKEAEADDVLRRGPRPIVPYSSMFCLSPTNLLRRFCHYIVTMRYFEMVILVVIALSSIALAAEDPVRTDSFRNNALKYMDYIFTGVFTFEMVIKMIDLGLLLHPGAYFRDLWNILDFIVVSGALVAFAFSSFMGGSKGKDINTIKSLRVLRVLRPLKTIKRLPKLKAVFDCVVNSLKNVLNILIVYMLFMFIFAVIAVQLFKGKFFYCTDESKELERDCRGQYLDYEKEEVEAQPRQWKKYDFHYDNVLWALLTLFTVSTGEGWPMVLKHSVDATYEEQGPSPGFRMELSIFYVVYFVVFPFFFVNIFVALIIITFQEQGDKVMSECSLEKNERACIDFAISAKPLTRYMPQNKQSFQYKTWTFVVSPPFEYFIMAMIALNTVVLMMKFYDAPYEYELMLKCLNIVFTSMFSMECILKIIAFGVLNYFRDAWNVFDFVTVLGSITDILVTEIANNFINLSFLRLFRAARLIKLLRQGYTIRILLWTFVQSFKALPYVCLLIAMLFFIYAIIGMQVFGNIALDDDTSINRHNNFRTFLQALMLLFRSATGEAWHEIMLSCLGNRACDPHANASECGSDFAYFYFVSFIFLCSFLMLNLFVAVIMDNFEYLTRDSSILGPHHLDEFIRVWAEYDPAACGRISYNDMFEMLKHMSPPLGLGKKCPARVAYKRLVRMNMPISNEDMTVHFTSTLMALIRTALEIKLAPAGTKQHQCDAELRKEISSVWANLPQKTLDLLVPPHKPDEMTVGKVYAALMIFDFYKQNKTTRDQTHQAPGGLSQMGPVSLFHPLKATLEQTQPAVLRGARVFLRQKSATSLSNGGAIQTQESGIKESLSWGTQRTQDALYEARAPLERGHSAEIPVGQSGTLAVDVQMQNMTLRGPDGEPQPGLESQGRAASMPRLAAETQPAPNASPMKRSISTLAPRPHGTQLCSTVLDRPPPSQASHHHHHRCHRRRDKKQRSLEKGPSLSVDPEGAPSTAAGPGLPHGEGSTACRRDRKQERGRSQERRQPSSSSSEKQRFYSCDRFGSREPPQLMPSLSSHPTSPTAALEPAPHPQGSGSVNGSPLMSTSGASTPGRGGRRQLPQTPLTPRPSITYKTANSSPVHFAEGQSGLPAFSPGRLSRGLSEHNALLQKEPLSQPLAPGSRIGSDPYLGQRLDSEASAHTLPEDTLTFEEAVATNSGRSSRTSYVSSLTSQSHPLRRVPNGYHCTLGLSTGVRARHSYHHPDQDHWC
Sequence of N-type calcium channels (O08532 25-956 partner limits assumed): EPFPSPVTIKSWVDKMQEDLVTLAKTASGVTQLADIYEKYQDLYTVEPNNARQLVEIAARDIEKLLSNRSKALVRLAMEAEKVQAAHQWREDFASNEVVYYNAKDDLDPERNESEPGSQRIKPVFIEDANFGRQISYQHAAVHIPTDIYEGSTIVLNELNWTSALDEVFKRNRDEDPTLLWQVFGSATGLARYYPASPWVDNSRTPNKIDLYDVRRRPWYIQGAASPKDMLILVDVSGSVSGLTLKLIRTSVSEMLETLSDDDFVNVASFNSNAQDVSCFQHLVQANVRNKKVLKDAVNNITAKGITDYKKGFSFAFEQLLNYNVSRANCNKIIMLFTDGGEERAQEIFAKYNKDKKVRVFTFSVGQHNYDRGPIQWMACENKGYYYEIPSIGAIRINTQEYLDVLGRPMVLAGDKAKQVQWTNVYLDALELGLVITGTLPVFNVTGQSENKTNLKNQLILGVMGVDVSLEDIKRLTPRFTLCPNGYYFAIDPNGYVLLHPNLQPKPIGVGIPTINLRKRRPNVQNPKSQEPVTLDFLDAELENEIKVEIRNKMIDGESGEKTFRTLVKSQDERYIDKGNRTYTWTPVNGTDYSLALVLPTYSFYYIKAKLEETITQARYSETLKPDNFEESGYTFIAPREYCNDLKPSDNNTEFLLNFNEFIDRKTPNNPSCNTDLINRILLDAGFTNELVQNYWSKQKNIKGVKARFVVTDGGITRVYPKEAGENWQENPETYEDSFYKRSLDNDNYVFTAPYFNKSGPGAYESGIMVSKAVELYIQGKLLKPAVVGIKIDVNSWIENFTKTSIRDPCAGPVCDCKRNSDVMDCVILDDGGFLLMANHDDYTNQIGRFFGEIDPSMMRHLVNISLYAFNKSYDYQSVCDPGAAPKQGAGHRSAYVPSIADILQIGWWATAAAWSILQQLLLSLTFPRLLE
Sequence of N-type calcium channels (O08532 957-1103 partner limits assumed): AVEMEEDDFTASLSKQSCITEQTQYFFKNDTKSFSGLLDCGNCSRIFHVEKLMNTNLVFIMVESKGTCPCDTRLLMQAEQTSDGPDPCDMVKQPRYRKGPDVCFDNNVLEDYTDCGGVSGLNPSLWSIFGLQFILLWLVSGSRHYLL
Sequence of N-type calcium channels (P54285 whole entry partner): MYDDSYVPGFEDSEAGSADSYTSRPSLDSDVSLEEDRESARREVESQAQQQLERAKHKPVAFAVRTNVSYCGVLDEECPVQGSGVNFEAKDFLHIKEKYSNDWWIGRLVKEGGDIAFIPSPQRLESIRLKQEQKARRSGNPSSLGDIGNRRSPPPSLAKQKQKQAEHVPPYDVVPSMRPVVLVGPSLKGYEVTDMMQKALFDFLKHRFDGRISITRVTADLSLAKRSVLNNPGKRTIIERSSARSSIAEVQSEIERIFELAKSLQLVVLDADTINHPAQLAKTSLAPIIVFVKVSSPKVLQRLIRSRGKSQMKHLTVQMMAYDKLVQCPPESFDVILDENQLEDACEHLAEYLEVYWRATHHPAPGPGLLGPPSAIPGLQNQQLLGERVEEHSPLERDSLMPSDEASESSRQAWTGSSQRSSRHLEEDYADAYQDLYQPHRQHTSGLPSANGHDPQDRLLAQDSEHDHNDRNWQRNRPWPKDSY

YGRKKRRQRRRKLSSIESDV [Tat-NR2B9c, reference compound]
additional inhibition once N-channels are blocked by omega conotoxin (1 μM): no additional inhibition
